Reference: patent US10801046B2, “Methods and materials for biosynthesizing multifunctional, multivariate molecules via carbon chain modification” (INVISTA NORTH AMERICA S.A.R.L., priority 2016, dated 2020)

B1: SEQ ID NO: 175: Tepidicaulis marinus aminotransferase (protein, listed as Tepidicaulis marinus)
chain: MSQTAQISNQTRRWQEMDARHHVHPFSDQAALAKKGARVITHAEGVYLYDSEGHKIIDGMAGLWCVNVGYGRSELAEAGYKALKELPYYNTFFQTTNPYTAELGERLAEVTPDGLDRFFFANSGSEANDSMVKIIRYYWSLQGKPEKKVFISRKQAYHGVTMTAASLSGISAMHPQAGLPLPNHAHIDFPYWYGMGGDMDPNEFGVHIAMKLEEKILEIGAENVAAFVAEPVQGAGGLIIPPDSYWPVIQEICHKYDILLHADEVICGFGRTGNWFGSHTYGIVPDTMAMAKGMTSGYQPLSAVALGPRVGDALHNSGEEWSHGFTYSGHPVASAVALANLDVLQKDKLVEKAGGETGEHFLKHLHALADHPIVGETRGVGLLGAIELVKDKKTRERFEGDTGGLCRDHCFENDLIMRAIGNTMVLSPPLSITKAELDELFTLARKALDATAKDLGAM
B2: SEQ ID NO: 177: Pseudooceanicola batsensis aminotransferase (protein, listed as Pseudooceanicola batsensis)
chain: MKDDNFLKEHNARALWHPMGAPGDSMANPPVIISSASGSRIRDIDGHETVDGVGGLWCANLGYSNDAVKEAIAKQLHELPYYSAFAGCTNPSAIEASVAVQEFFAEDGIGRVFFTSGGSDSVDTCLRLARQYHQVKGAPTRTKFLSLKKGYHGTHFGGASVNGNNRFRIGYEPLLPGCFHLTAPHAYRNPYDEADPAALARKIAAEMVDEIEFQGPETIAAFIMEPILGAGGVIVPDPTFMGLMREICTRYGILMIADEVICGFGRTGDWTGSRHWGVRPDMMSVAKGITSAYFPVGAALISEEVAEVFEKDTSGAAAIWHGYTYSAHPVGAAAVTACLSETLRLDTRTNAAARGTQLYQGLLGLKEKYDIIGDVRGGHGLMTAIEFVTDRAKKTPMDAATVKTIHSRVYEAGAMVRPAPPNLLMSPPLIITEAEVRTIIEALDTAIGSV
modifications: Pseudooceanicola batsensis (strain ATCC BAA-863 / DSM 15984 / KCTC 12145 / HTCC2597)
notes: Pseudooceanicola batsensis aminotransferase
B3: SEQ ID NO: 178: Defluviimonas sp. 20V17 aminotransferase (protein)
chain: MNELSNSVAHADITTILHPYTDARMHEQKGPLVIEKGDGVHVIDQSGKRYIEAMSGLWSVAVGFSQTRLRDAAAAQMEKLPYYHTFASKSHEPSVRLAEKLVEMTPENLTRVFYTSSGSEANDTVIKLVWYMNNALGRPQKKKFLARNKAYHGITIASGSLTGLPGNHRDFDLPAIPVVHLTCPHLYRFGQEGETEAQFCARLLKEAEDTILAEGPETIAAFIGEPVMGAGGVMVPPEGYWQGIEALCRKYDILLVSDEVINGFGRTGARWGCEKMGFTPDILVTSKQLTSSYMPLAAIVFSEDIYNVIADNTHKLGGFGHGFTASGHPVACAVGLENLAIIEEQGLMENAAKMGERLQAGLAKLADHPLVGEVRGTGLIAAVELVADKATKRPFDPVGKVGGKVFEYGHEEGVIFRNLGDSIAVCPPLIVTEHDVDEIVRLMGIAIDRAADWARAEGLVA
modifications: Defluviimonas sp. 20V17
notes: Defluviimonas sp; 20V17 aminotransferase
B4: SEQ ID NO: 176: Firmicutes bacterium CAG:24 aminotransferase (protein)
chain: MGELMQQYIDEAEQDLLHTYNRYQVVLDRGDGVSLYDIEGKRYLDFVAGIAVFALGYHNAEYNDALKAQIDKVIHTSNYYYNVPAVEAARHLKKVSRMDRVFFTNSGAEAIEGAIKAARKYAYLKDGTTDHEIIAMNHSFHGRTMGALSVTGNPHYREAFEPGIGNIRFADLNDFDSVLACVNDKTCAILLETVQGEGGIYPVQEDFLKKVRALCDEKDILLILDEIQCGMGRTGYWYAWQKYGVKPDIMTTAKALGCGVPVGAFLMTEKVGQHSLTAGDHGTTYGGNPLACAAVAKVLDLFEENNILEHVREVSAYLEEKLDSLAAKYDFITDRRGMGLMQGLVFDRPVAPVINAALENGLILINAGTNIIRFVPPLVITDADVDEMIEILDSCLKTFQEQNA
modifications: Firmicutes bacterium CAG:24
notes: Firmicutes bacterium CAG:24 aminotransferase

experiment: In vivo aminotransferase activity screening, 7-aminoheptanoate by LC-MS; assay type: cell-based, Escherichia coli; settings: in vivo conversion of 7-oxoheptanoate to 7-aminoheptanoate, 120 aminotransferases screened
Description: A 165-member aminotransferase library from Twist on IPTG-inducible T7- pUC expression vectors was co-transformed into T7 Express lysY/Iq with a constitutive expression pJ23150-derived plasmid bearing the phosphopantetheinyl transferase sfp from Bacillus subtilis, CAR_Srot from Invista and BioC from Serratia marcescens (UniprotKB Accession No. P36571 (SEQ ID NO: 165)). The resulting strains were incubated in 0.5 ml of rich media (terrific broth or LB containing 8% glycerol) supplemented with 0.4 mM IPTG and received 1 g/L monomethyl heptanedioate, 1 g/L heptanedioate, or no organic acid addition, depending on the experiment. Following incubation overnight at 37° C. in a shaking incubator, cells were pelleted and the supernatants were analyzed using LC-MS for 7-aminoheptanoate or monomethyl 7-aminoheptanoate. A Vibrio fluvialis aminotransferase (UniProtKB Accession No. F2XBU9 (SEQ ID NO: 128)) was used as a positive control.

Molecule | 7-aminoheptanoate yield compared to the positive control (F2XBU9)
B1 | higher 7-aminoheptanoate yields
B2 | higher 7-aminoheptanoate yields
B3 | higher 7-aminoheptanoate yields
B4 | higher 7-aminoheptanoate yields
